Experimental data as given in patent US20260091122A1.

Key:
[1] = biological target: membrane of human CD14+ monocytes isolated from the peripheral blood of a healthy subject; assay: flow cytometry on human monocytes, AF647 label, 37 C
[2] = biological target: membrane of human macrophages differentiated in vitro in the presence of M-CSF from CD14+ monocytes; assay: flow cytometry on human macrophages, AF647 label, 37 C

- MFI [1]: 265 MFI
- Ratio (MFI against that of the isotype control) [1]: 1
- MFI [2]: 1640 MFI
- Ratio (MFI against that of the isotype control) [2]: 1
Substance: non-specific antibody corresponding to an isotype control coupled to the Alexa Fluor (AF) 647 fluorochrome
